# According to patent US20180334496A1 (KODIAK SCIENCES, published 2018):
# Numbering of substitutions follows the chain as printed.
# B1: KCD009 (antibody, V domains shown)
# VH: QIQLVQSGPELKKPGETVKISCKASGYIFRNYGMNWVKQGPGKGLKWMGWINTYTGEPTYADDFKGRFAFSLETSASTAYLQISNLKNEDTATYFCVRDGPGFAYWGQGTLVTVSA
# VL: DVLMTQTPLSLPVSLGDQASISCRSSLIIEHSDGNTYLEWYLQKPGQSPKLLIYKVSNRFSGVPDRFSGSGSGTDFTLKISRVEADDLGVYYCFQGSHVPVTFGAGTNLELK
# B2: KCD033 (antibody, V domains shown)
# VH: EVQLQQSGPELVKPGASMKISCTASGYSFTGYTMTWVKQSHGKNLEWIGLINPYNGGTNYNQKFKGKATLTVDKSSSIAYMELLSLTSEDSAVYYCARRHYGSNWDYWGQGTTLTVSS
# VL: DIKLTQSPSSIYTSLGERVTITCKASQDINTYLSWFQQRPGKSPKTLIYRADRLVDGVPSRVRGSGSGQDYSLTISSLEYEDMGIYYCLQYDEFPYTFGGGTKLEIK
# B3: KCD036 (antibody, V domains shown)
# VH: B2 VH with T23K, L70F, I78T, N104S
# VL: B2 VL with I11M, T13A, R39K, D52N, V62F, R63S, D82E
# B4: KCD042 (antibody, V domains shown)
# VH: EVQLQQSGAELVKPGASVRLSCTASGFNIKHTYIHWVSQRPEQGLEWIGKIDPANGNTKYDPKFQGKATITADTSSNTAYLQLSSLTSEDTAVYYCVNAMEYWGQGTSVTVSS
# VL: QSVLTQSPAIMSASPGEKVTMTCSANSSVSDMYWFQQRPGSSPRLLIYDTSNLASGVPVRFSGSGSGTSYSLTISRMEAEDAATYYCQQWSTYPWTFGGGTKLEIK
# B5: KCD044 (antibody, V domains shown)
# VH: B4 VH with I34M, Q43R, A79V, V97L
# VL: B4 VL with F35Y
# B6: KCD048 (antibody, V domains shown)
# VH: EVQLQQSGADLVKPGASVKLSCTASGFNIKATYMHWVRQRPEKGLEWIGRIDPANGHTIYDPQFQGKATITSDTSSNTAYLQLNSLTSEDTAVYYCAEAMDYWGQGTSVTVSS
# VL: B4 VL with S2I, M21L, N26T, D31Y, F35Y, R38K, A82D, T92N, W95F
# B7: KCD011 (antibody, V domains shown)
# VH: EVKLVESGGGLVQPGGSLKLSCAASGFTFSSNTMSWVRQTPEKRLEWVAYITNGGGSTYYPDTVKGRFTISRDNARNTLYLQMSSLKSEDTAMYYCARHDYYTMDYWGQGTSVTVSS
# VL: DIQMTQSPSSLSASLGGKVTITCKASQDINKYIAWYQHKPGKGPRLLIHYTSTLQPGIPSRFSGSGSGRDYSFSISNLEPEDIATYYCLQYDNLLYTFGGGTKLEIK
# B8: KCD056 (antibody, V domains shown)
# VH: B7 VH with L20V, S31T, N32Y, V64E, R76K, A97V, T103A
# VL: B7 VL with K103T
# B9: KCD057 (antibody, V domains shown)
# VH: EVKLVESGGGLVQPGGSLKLSCAASGFTFSNYIMSWVRQTPEKRLEWVAYITNGGGATYYPDTVKGQFTISRDNAKNTLYLQMSSLKSEDTAIYYCARHDFYALDFWGQGTSVTVSS
# VL: B7 VL with Q90K
# B10: KCD058 (antibody, V domains shown)
# VH: B9 VH with G10D, N31R, Q39L, Y50F, A57N, Y60H, Q67R, K76N, F101Y, F106Y
# VL: B7 VL
# B11: KCD062 (antibody, V domains shown)
# VH: EVKLVESGGGLVQPGGSLKLSCAASGFTFSTYIMSWVRQTPEKRLEWVAYITSGGSSTYYPDTVKGRFTISRDNAKSTLYLQMSSLKSEDTAMYYCARHAHFYAMDYWGQGTSVTVSS
# VL: B7 VL
# B12: KCD063 (antibody, V domains shown)
# VH: B11 VH with T28I, T31S, S53N, S56G, F68L, S77N, A97V, F102Y
# VL: B7 VL with A34T
# B13: KCD064 (antibody, V domains shown)
# VH: B11 VH with T31S, E46G, S56G, S77N, A100G, H101T, F102G
# VL: B7 VL with K103E
# B14: KCD077 (antibody, V domains shown)
# VH: EVQLQQSGAELVRPGALVKLSCKASGFNIKDYYMHWVKQRPEQGLEWIGWIDPENGHTIYDPRFQGKATITADTSSNTAYLQLSSLTSEDTAVYYCSRGLLGFAYWGQGTLVTVSA
# VL: DIVMTQSQKFMSTSVGDRVSVTCKASQNVGTNVAWYQQKPGQSPKALIYTASYRYSGVPDRFTGSGSGTDFTLTISNVQSEDLAEYFCQQYNSYPHMYTFGGGTKLEIK
# B15: KCD102 (antibody, V domains shown)
# VH: QVQLQQPGAELVRPGTSVKLSCKASGYTFTSYWMHWVKQRPGQGLEWIGVIDPSDSYTNYNQKFKGKATLTVDTSSSTAYMQLSSLTSEDSAVYYCARNGYDGSMDYWGQGTSVTVSS
# VL: EIQMTQTTSSLSASLGDRVTISCRASQDISNYLNWYQQKPDGTVKLLIYYPSRLHSGVPSRFSGSGSGTDYSLTISNLEQEDFATYFCQQGNTLPYTFGGGTKLEIK
# B16: KCD101 (antibody, V domains shown)
# VH: B15 VH with A97G
# VL: B15 VL with E1D
# B17: KCD103 (antibody, V domains shown)
# VH: B15 VH with N59K, G66D, D73E, R98G
# VL: B15 VL with E1D, Y32S, P51T, G57R, E79D, F83I, G91A
# B18: KCD104 (antibody, V domains shown)
# VH: B15 VH with N59Y, S104A
# VL: B15 VL
# B19: KCD122 (antibody, V domains shown)
# VH: EVQLQQSGPELVKPGASVKISCKASGYTFTDYYKNWMRQRHGESLEWIGDINPNNGDANYNQKFKGKATLTVDKSSSTAYMELRSLTSEDSAVYFCAREGPSFAYWGHGTLVTVSA
# VL: DVLMTQTPLSLPVSLGDQASISCRSSQTIVHSNGDTYLEWYLQKPGQSPNLLIYKVSNRFSGVPDRFSGSGSGTDFTLKISRVEAEDLGVYYCFQGSHVPPTFGGGTKLEIK
# B20: KCD003 (antibody, V domains shown)
# VH: EVQLQQSRPELVKPGASVKIFCKASGYTFTDYYMNWMRQRHGETLEWIGDINPNNGDPSYNQKFKDKATLTVDKSSSTASMELRSLTSDDSAVYYCAREGPSFAYWGQGTLVTVSA
# VL: B19 VL with D17E
# B21: KCD118 (antibody, V domains shown)
# VH: B19 VH with S25F, N55S, F95Y
# VL: B19 VL with V90I
# B22: KCD121 (antibody, V domains shown)
# VH: B19 VH with A58T, N59S, K65R, Y80F, F95Y, H108Q
# VL: B19 VL with S26N, K79R
# B23: KCD123 (antibody, V domains shown)
# VH: B19 VH with Q3H, Y32F, D57G, A58T, F95Y, H108Q
# VL: B19 VL
# B24: KCD014 (antibody, V domains shown)
# VH: B11 VH with T31S, S53N, S56G, S57N, V64I, S77N, A100G, H101T, F102G
# VL: EIVLTQSPTTMAASPGEKITITCSASSSISSNYLHWYQQKPGFSPKLLIYRTSNLASGVPARFSGSGSGTSYSLTIGTMEAEDVATYYCQQGSSIPLTFGAGTKLELK
# B25: KCD128 (antibody, V domains shown)
# VH: QVQLQQPGAELVRPESSVKLSCKASGYTFTSYWMDWVMQRPGQGLEWIGNIYPSGSETHYNQKFKDKATLTVDKSSTTAYMQLSSLTFEDSAVYYCARSGFIGSRYLYYFDYWGQGTTLTVSS
# VL: DIVMTQSHKFMSTSVGDRVTITCKASQDVSNAVAWYQLKPGQSPKLLIYSASYRYTGVPDRFTGSGSGTDFTFTISSVQAADLAVYYCQQHYITPYTFGGGTKLEIK
# B26: KCD132 (antibody, V domains shown)
# VH: QVQLQQSGPELVKPGASVKISCKASGYSFTDYYINWVKQRPGQGLEWIGWIFPGSGSTYYNEKFKGKATLTVDKSSSTAYMLLSSLTSEDSAVYFCARTGYYSNLYAVDYWGQGTSVTVSS
# VL: DIQMTQSPASLSVSVGETVTITCRASENIYSNLAWYQQKQGKSPQLLVYVATNLADGVPSRFSGSGSGTQYSLKINSLQSEDFGNYYCQHFWGTPYTFGGGTKLEMR
# B27: KCD137 (antibody, V domains shown)
# VH: EVQLVESGGDLVKPGGSLKLSCAASGFTFSGYGMSWVRQIPDKRLEWVAISSRDNSFTYYPDSVKGRFTISRDNAKNTLYLQMSSLKSEDTALYFCTRHPYLPTGGYVMDYWGQGTSVTVSS
# VL: DIVMTQSHKFMSTSVGDRVSITCKASQDVGTAVAWYQQRPGQSPKLLIYWASTRHTGVPDRFTGSGSGTDFTLTVSNVQSEDLADYFCQQYTSYPLTFGAGTKLELK
# B28: KCD214 (antibody, V domains shown)
# VH: EVQLQQSVAEFVRPGASVKLSCTASGFNIKNTYMHWVKQRPEQGLEWIGRIDPANGNTEYAPKFQGKATITADTSSNTAYLQLSSLTSEDTAIYYCALYDYDGYWGQGTTLTVSS
# VL: EIVLTQSPALMAASPGEKVTITCRVSSSISSSSLHWYQQKSGTSPKPWIYGTSNLASGVPVRFSGSRSGTSYSLTISSMEAEDAATYYCQQWSDYPWTFGGGTKLEIK
# B29: KCD220 (antibody, V domains shown)
# VH: QVQLQQSGAELMEPGASVKLSCKATGYTFTGYWIEWVKQRPGHGLEWIGETLPGSDSNNYNEKFKGKATFTADTSSNTAYMQLSSLTTEDSAIYYCARDYSNYWYFDVWGTGTTVTVSS
# VL: DIQMTQTTSSLSASLGDRVTISCRASQDISNYLNWYQQKPDGTVKLLIYYTSNLHSGVPSRFSGSGSGTDYSLTISNLEQEDIATYFCQQDSKHRTFGGGTKLEIK
# Molecular target: T1, human Complement Factor D (CFD), purified from human serum (human, UniProt P00746 26-253)
# T1 construct: serum purified (CompTech A136); also called serum purified CFD; hCFD-Comptech
# T1 sequence (P00746 26-253): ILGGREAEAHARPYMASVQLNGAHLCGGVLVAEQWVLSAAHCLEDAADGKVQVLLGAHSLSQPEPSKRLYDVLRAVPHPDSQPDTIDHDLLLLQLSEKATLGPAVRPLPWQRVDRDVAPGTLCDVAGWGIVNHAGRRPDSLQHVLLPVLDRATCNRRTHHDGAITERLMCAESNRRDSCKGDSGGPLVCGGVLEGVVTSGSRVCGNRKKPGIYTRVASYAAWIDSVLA
# Assay: SPR MX96, mAbs amine-coupled, CFD injected
row,Binder,Kd [nM]
1,B1,5.57
2,B2,10.9
3,B3,25.5
4,B4,1.43
5,B5,2.62
6,B6,1.87
7,B7,77.5
8,B8,60.2
9,B9,2.71
10,B10,9.91
11,B11,24
12,B12,33.3
13,B13,20.3
14,B14,16.9
15,B15,3.56
16,B16,3.78
17,B17,4.37
18,B18,1.58
19,B19,1.44
20,B20,1.05
21,B21,0.757
22,B22,1.8
23,B23,2.77
24,B24,21.8
25,B25,14
26,B26,2.61
27,B27,0.504
28,B28,1.56
29,B29,0.0535
